Literature values in publication PMC10680782.

Molecular target: VE-cadherin (Homo sapiens) (UniProt P33151)
Chain of UniProt P33151 (P33151 48-599): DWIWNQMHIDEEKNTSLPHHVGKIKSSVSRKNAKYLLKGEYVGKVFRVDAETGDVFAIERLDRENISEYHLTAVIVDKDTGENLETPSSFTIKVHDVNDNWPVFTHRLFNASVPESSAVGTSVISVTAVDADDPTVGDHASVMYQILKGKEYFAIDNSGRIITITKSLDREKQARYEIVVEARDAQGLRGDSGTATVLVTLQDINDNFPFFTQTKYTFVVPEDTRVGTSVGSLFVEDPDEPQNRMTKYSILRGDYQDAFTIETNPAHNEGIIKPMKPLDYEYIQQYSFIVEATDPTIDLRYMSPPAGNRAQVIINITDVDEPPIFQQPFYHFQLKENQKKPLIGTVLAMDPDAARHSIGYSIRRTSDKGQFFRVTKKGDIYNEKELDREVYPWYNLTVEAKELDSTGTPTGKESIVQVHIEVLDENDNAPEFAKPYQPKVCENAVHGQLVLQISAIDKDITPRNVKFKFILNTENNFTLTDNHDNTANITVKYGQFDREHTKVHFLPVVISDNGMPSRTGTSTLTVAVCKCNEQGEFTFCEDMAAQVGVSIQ

For “fibrin β15-42 fragment 15-42 (from UniProt P02675)”, which Kd is on record?
The Kd was 267 µM.
